Experimental data: patent US20230074277A1 (BUEHLMANN LABORATORIES, published 2023)

Biological target: the molecule itself
Assay: size exclusion chromatography, buffer A + 2 mM CaCl2
Source text: FIG. 9: Site-directed mutagenesis of the SEQ-ID NO:3 fusion protein and its consequences. A previously described mutation (EP3248015 A1) that impairs heterotetramerization of S100A8/S100A9, namely E78A in the S100A9 polypeptide chain, was introduced into the fusion protein. This E78A mutant remains monomeric, even in the presence of CaCl₂.
Site directed mutagenesis was used to introduce the mutation E78A in the S100A9 chain (see EP3248015 A1) of the fusion protein (SEQ ID NO:3). In endogenous calprotectin, this mutation abrogates […] (Leukert N et al. Calcium-dependent tetramer formation of S100A8 and S100A9 is essential for biological activity (2006). J. Mol. Biol. 359: 961-972). Similary, introduction of this mutation into the fusion protein (SEQ-ID NO:3) prevented CaCl₂) dependent dimerization. The S200 size exclusion chromatography of the mutated and non-mutated fusion proteins (SEQ ID NO:3) in buffer A containing 2 mM CaCl₂) was performed as described in Examples 1 and 3 (FIG. 9).

B1: recombinant fusion polypeptide (SEQ ID NO:3) (other)
chain: MHHHHHHLEVLFQGPMTCKMSQLERNIETIINTFHQYSVKLGHPDTLNQGEFKELVRKDLQNFLKKENKNEKVIEHIMEDLDTNADKQLSFEEFIMLMARLTWASHEKMHEGDEGPGHHHKPGLGEGTPLEVLFQGPMLTELEKALNSIIDVYHKYSLIKGNFHAVYRDDLKKLLETECPQYIRKKGADVWFKELDINTDGAVNFQEFLILVIKMGVAAHKKSHEESHKE
notes: Single polypeptide, monomer 26.8 kDa, equal to an S100A8/S100A9 heterodimer; It dimerizes in 2 mM CaCl2, equal to the heterotetramer; also called rCAL (Mrp14-Mrp8 fusion)
B1: binds.
